Drawing on the Immune Epitope Database (IEDB), this text covers Kd for 40 sequences.

For orientation: pKd means the Kd on a negative log10 scale, so that one unit is a factor of ten.

Some targets named below: HLA-A*68:01; HLA-A*03:01; HLA-A*33:01; HLA-A*31:01; HLA-A*11:01.
Holding throughout (assay): IEDB peptide-MHC binding, purified MHC/competitive/radioactivity; filed as Kd, often an IC50 or EC50 that approximates it; ≥ and ≤ were set here for values at or beyond the usual limits of such assays
[1] abbreviates: source organism: Vaccinia virus WR.
[2] abbreviates: source organism: SARS coronavirus Tor2.
[3] abbreviates: source organism: Dengue virus 1 Brazil/97-11/1997.
Where [4] appears, read: source organism: Mammarenavirus brazilense.
[5] abbreviates: source organism: Dengue virus 2 Jamaica/1409/1983.
Setting [6] is: source organism: Mammarenavirus juninense.
Setting [7] is: source organism: Lassa virus GA391.
Setting [8] is: source organism: Dengue virus 3 Martinique/1243/1999.
[9] abbreviates: source organism: Dengue virus 4 Philippines/H241/1956.

pKd: −log10 of the molar value. A value given as a limit tells only on which side of the number the result lay.

With ALYYVHSLLY, the pKd is 5.65 with HLA-A*68:01 (setting [1]); 9.41 with HLA-A*03:01 (setting [1]); ≤ 4.62 in the assay with HLA-A*33:01 (setting [1]); 4.95 with HLA-A*31:01 (setting [1]); 8.04 in the assay with HLA-A*11:01 (setting [1]).
On to VVMDYLDNLK, for which the pKd in the assay with HLA-A*68:01 (setting [2]) was 5.17; with HLA-A*03:01 (setting [2]), 5.19; with HLA-A*33:01 (setting [2]), ≤ 4.33; with HLA-A*31:01 (setting [2]) it was ≤ 4.44; with HLA-A*11:01 (setting [2]) it was 5.71.
In the case of RLQMAGVEVR, the pKd with HLA-A*68:01 (setting [1]) is 6.04; with HLA-A*03:01 (setting [1]), 5.83; with HLA-A*33:01 (setting [1]), 5.31; in the assay with HLA-A*31:01 (setting [1]), 6.93; with HLA-A*11:01 (setting [1]) it was 4.83.
For TSEKYSKGYK the same measures were 6.03, ≤ 4.60, ≤ 4.15, ≤ 4.15 and 5.98.
Turning to ALYEQVVMDY, the pKd was ≤ 4.49 in the assay with HLA-A*68:01 (setting [2]); 6.46 with HLA-A*03:01 (setting [2]); ≤ 4.57 in the assay with HLA-A*33:01 (setting [2]); ≤ 4.35 with HLA-A*31:01 (setting [2]); 5.46 in the assay with HLA-A*11:01 (setting [2]).
On to TLDDLAIKQY, for which the pKd in the assay with HLA-A*68:01 (setting [1]) is ≤ 4.20; in the assay with HLA-A*03:01 (setting [1]), 4.74; with HLA-A*33:01 (setting [1]), ≤ 4.15; with HLA-A*31:01 (setting [1]), ≤ 4.15; in the assay with HLA-A*11:01 (setting [1]), 5.53.
As to KVVKKLSVIR, the pKd in the assay with HLA-A*68:01 (setting [1]) was 6.32; with HLA-A*03:01 (setting [1]), 5.29; in the assay with HLA-A*33:01 (setting [1]) it was 5.44; in the assay with HLA-A*31:01 (setting [1]), 7.25; with HLA-A*11:01 (setting [1]), 6.04.
As to MWQLMYFHRR, the values for the pKd with HLA-A*33:01 (setting [3]) and in the assay with HLA-A*31:01 (setting [3]) were 7.95 and ≤ 4.59, respectively.
Consider MIKNLTQLFK, for which the pKd was 8.79 with HLA-A*68:01 (setting [1]); 9.08 with HLA-A*03:01 (setting [1]); 6.50 with HLA-A*33:01 (setting [1]); 8.37 with HLA-A*31:01 (setting [1]); 9.12 with HLA-A*11:01 (setting [1]).
Regarding VTLDFTKFH, the pKd with HLA-A*68:01 (setting [4]) was ≤ 4.55; with HLA-A*03:01 (setting [4]), 5.13; with HLA-A*33:01 (setting [4]) it was ≤ 4.24; with HLA-A*31:01 (setting [4]) it was 4.88; with HLA-A*11:01 (setting [4]) it was 6.68.
As to RAFDIYNEK, the pKd with HLA-A*68:01 (setting [2]) was 6.42; in the assay with HLA-A*03:01 (setting [2]), 7.97; with HLA-A*33:01 (setting [2]), ≤ 4.11; with HLA-A*31:01 (setting [2]), 6.97; with HLA-A*11:01 (setting [2]), 8.45.
As for DAVRAFLLR, the pKd with HLA-A*68:01 (setting [1]) was 9.08; in the assay with HLA-A*03:01 (setting [1]), ≤ 4.46; with HLA-A*33:01 (setting [1]), 7.63; in the assay with HLA-A*31:01 (setting [1]) it was 6.32; with HLA-A*11:01 (setting [1]) it was 4.86.
On to KLITEWCCR, for which the pKd in the assay with HLA-A*31:01 (setting [5]) is 7.99.
Regarding AVAKCNLNH, the pKd with HLA-A*68:01 (setting [6]) was ≤ 4.33; with HLA-A*03:01 (setting [6]), 7.07; with HLA-A*31:01 (setting [6]) it was 6.16; with HLA-A*11:01 (setting [6]), 6.64.
On to QILMKTANNY, for which the pKd was 5.30 with HLA-A*68:01 (setting [1]); 6.97 with HLA-A*03:01 (setting [1]); 5.05 in the assay with HLA-A*33:01 (setting [1]); 5.62 in the assay with HLA-A*31:01 (setting [1]); 6.06 with HLA-A*11:01 (setting [1]).
Take MTSRMLLNR: the pKd was 7.26 with HLA-A*68:01 (setting [3]), 8.61 with HLA-A*33:01 (setting [3]), ≤ 4.63 with HLA-A*31:01 (setting [3]) and 7.39 with HLA-A*11:01 (setting [3]).
On to NYSRYWYLNH, for which the pKd with HLA-A*68:01 (setting [7]) is ≤ 4.15; with HLA-A*03:01 (setting [7]), 4.79; in the assay with HLA-A*33:01 (setting [7]), 5.87; in the assay with HLA-A*31:01 (setting [7]) it was 5.10; with HLA-A*11:01 (setting [7]) it was ≤ 4.51.
Regarding IILFILFFAY, the pKd is 6.49 in the assay with HLA-A*68:01 (setting [1]); 6.14 with HLA-A*03:01 (setting [1]); 5.59 with HLA-A*33:01 (setting [1]); 5.88 in the assay with HLA-A*31:01 (setting [1]); 4.95 with HLA-A*11:01 (setting [1]).
For the sequence RVIDPRRCMK, in the assay with HLA-A*31:01 (setting [5]), the pKd is 8.36.
With GLLSGQGPMK, in the assay with HLA-A*03:01 (setting [3]), the pKd was 8.58.
Take RVSTVQQLTK: the figures for the pKd with HLA-A*03:01 (setting [5]) and with HLA-A*11:01 (setting [5]) were 7.76 and 6.69, respectively.
For the sequence SNMLSIINK, in the assay with HLA-A*11:01 (setting [8]), the pKd was 6.94.
DTPSPPEVER: in the assay with HLA-A*68:01 (setting [3]), the pKd is 6.21.
For KVDTRTPRAK, the pKd with HLA-A*03:01 (setting [3]) is 8.14.
YLALMATFK: in the assay with HLA-A*03:01 (setting [3]), the pKd is 8.15.
In the case of AIKILTGFR, the pKd in the assay with HLA-A*31:01 (setting [9]) is 7.26.
For LVTFKTAHAK, the pKd with HLA-A*03:01 (setting [3]) was 7.58; with HLA-A*11:01 (setting [3]), 6.32.
In the case of SSNVANYQK, the pKd is 7.26 with HLA-A*68:01 (setting [2]), ≤ 4.11 in the assay with HLA-A*33:01 (setting [2]) and 5.39 with HLA-A*31:01 (setting [2]).
Regarding FIFSLKDTLK, the pKd with HLA-A*68:01 (setting [8]) is 7.27.
For SLRTTTVTGK, in the assay with HLA-A*03:01 (setting [3]), the pKd is 8.20.
On to LMIVAKHER, for which the pKd with HLA-A*31:01 (source organism: Dengue virus 4 Dominica/814669/1981) was 7.30.
On to GFLSRNKKPR, for which the pKd with HLA-A*33:01 (setting [3]) was 5.75.
Regarding RSCTLPPLR, the pKd in the assay with HLA-A*31:01 (setting [5]) is 8.34.
Take VSILLSSLLK: the pKd with HLA-A*03:01 (setting [3]) was 7.96; with HLA-A*11:01 (setting [3]) it was 7.31.
With SLRPQPTELK, in the assay with HLA-A*03:01 (setting [5]), the pKd was 8.52.
For LSKSEFNTYK, in the assay with HLA-A*11:01 (setting [3]), the pKd was 6.25.
VSTPQGLVK: the pKd with HLA-A*11:01 (setting [9]) was 5.16.
For the sequence TTLWEGSPGK, the pKd in the assay with HLA-A*11:01 (setting [3]) is 7.07.
Regarding KLYEEPLSK, in the assay with HLA-A*03:01 (source organism: Homo sapiens), the pKd was 8.60.
With FLISGKGIGK, in the assay with HLA-A*03:01 (setting [8]), the pKd was 7.27.
